B1: 11B6嵌合抗体 (antibody, human IgG4 S228P, kappa, V domains shown)
VH: QVQLQQPGAELVRPGASVKLSCKASGYTFTSYWINWVKQRPGQGLEWIGNIYPSDSYTNYNQKFKDKATLTVDKSSSTAYMQLSSPTSEDSAVYYCTRESQTGTGYYAMDYWGQGTSVTVSS
VL: DIQMTQTTSSLSASLGDRVTISCRASQDISNYLNWYQQKPDGTVKLLIYYTSRLHSGVPSRFSGSGSGTDYSLTISNLEQEDIATYFCQQGNTLPWTFGGGTKLEIKR
notes: Mouse 11B6 variable regions on a human IgG4 constant region and a human kappa constant region; also called 11B6 chimeric antibody
B2: 人源化11B6-hu-a抗体 (antibody, human IgG4 S228P, kappa, V domains shown)
VH: QVQLVQSGAEVKKPGSSVKVSCKASGYTFTSYWINWVRQAPGQGLEWIGNIYPSDSYTNYNQKFQGRVTITADESTSTAYMELSSLRSEDTAVYYCTRESQTGTGYYAMDYWGQGTLVTVSS
VL: DIQMTQSPSSLSASVGDRVTITCQASQDISNYLNWYQQKPGKAPKLLIYYTSRLHSGVPSRFSGSGSGTDFTFTISSLQPEDIATYYCQQGNTLPWTFGGGTKLEIKR
B3: 人源化11B6-hu-b抗体 (antibody, human IgG4 S228P, kappa, V domains shown)
VH: QVQLVQSGAEVKKPGASVKVSCKASGYTFTSYWINWVRQAPGQGLEWIGNIYPSDSYTNYNQKFQGRVTMTRDTSTSTVYMELSSLRSEDTAVYYCTRESQTGTGYYAMDYWGQGTLVTVSS
VL: DIQMTQSPSSLSASVGDRVTITCRASQDISNYLNWYQQKPGKAPKLLIYYTSRLHSGVPSRFSGSGSGTDFTLTISSLQPEDFATYYCQQGNTLPWTFGQGTKVEIKR

The assay deals with T1, 4-1BB(24-180)-His重组蛋白 (4-1BB胞外段24-180位氨基酸, C端6个His) (UniProt Q07011 24-180).
T1 construct: range 24-180; Human is implied by the human therapeutic context; The monomer was used for immunisation and the ELISA screen; also called 4-1BB-His蛋白; 4-1BB蛋白
As to the kind of experiment: SPR, antibody captured on Protein A chip, 4-1BB protein 6.25-400 nM as analyte.
B1: binding was characterised by a dissociation constant (Kd) of 3.75 nM.

In the case of B2, the affinity, expressed as Kd, was 5.84 nM.

For the molecule B3, the affinity, expressed as Kd, was 9 nM.
